B1: Twister Ribozyme (parent)
chain: AACACUGCCAAUGCCGGUCCCAAGCCCGGAUAAAAGUGGAGGGGGCGG

The variants in this series derive from B1. The series is described as follows: self-cleavage, relative activity (ratio to wild type); higher = more cleavage; co-transcriptional.
With C26G A34G, the self-cleavage was 0.0982.

As to C19G G43U, the self-cleavage amounted to 0.685.

G17A: the self-cleavage was found to be 0.783.

As to U6A C15A, the self-cleavage amounted to 0.358.

As for U37C G45C, the self-cleavage stood at 0.26.

Turning to G17C G38A, the self-cleavage is 0.0789.

On to A23U G38A, for which the self-cleavage is 0.342.

A22C G42U: the self-cleavage worked out at 0.198.

G16C A40U: the self-cleavage was determined as 0.114.

C5U G43U: the self-cleavage came out at 0.2.

As to U6C A22C, the self-cleavage is 0.691.

Regarding A4G G42C, the self-cleavage stood at 0.186.

For C19U A35G, the self-cleavage stood at 0.683.

As to G7U C27U, the self-cleavage was 0.079.

For G17C G29C, the self-cleavage is 0.0728.

For G24A, the self-cleavage came out at 0.125.

On to C19G C25U, for which the self-cleavage is 0.151.

With C5U G38C, the self-cleavage is 0.581.

As for G7U A10U, the self-cleavage was determined as 0.0807.

Take C25G C46U: the self-cleavage came out at 0.286.

Consider A2C G17U, for which the self-cleavage stood at 0.0456.

For the variant A4C G47C, the self-cleavage turned out to be 0.0906.

For the variant A35C G42C, the self-cleavage was found to be 0.381.

Turning to C27A C46U, the self-cleavage is 0.639.

G45C G48A: the self-cleavage was 0.628.

As for C8A G48U, the self-cleavage is 0.257.

Regarding C3U A23G, the self-cleavage turned out to be 0.101.

With A10G G47U, the self-cleavage was determined as 1.01.

Consider A10G A11C, for which the self-cleavage was 0.801.

With A1U G28C, the self-cleavage is 0.0644.

As for G16C G44U, the self-cleavage worked out at 0.81.

For G7A U12A, the self-cleavage worked out at 0.441.

Turning to A30C G39C, the self-cleavage stood at 0.107.

For the variant C15U C27G, the self-cleavage was determined as 0.0731.

For A32G G43C, the self-cleavage worked out at 0.0899.

As for A10G A30G, the self-cleavage was found to be 0.897.

In the case of A32G G41U, the self-cleavage worked out at 0.609.

For C8A A34U, the self-cleavage is 0.675.

In the case of A30C G41U, the self-cleavage was 0.156.

Regarding C20G C26U, the self-cleavage is 0.0527.

For C9G G28A, the self-cleavage was 0.512.

As to A11C U12C, the self-cleavage turned out to be 0.79.

Take U12G G16C: the self-cleavage was determined as 0.753.

C19A A33C: the self-cleavage was determined as 0.0946.

For the variant U6G U37A, the self-cleavage was 0.112.

For the variant U6A A33U, the self-cleavage was 0.828.

Consider U37C G42A, for which the self-cleavage was 0.105.

On to A22G G29A, for which the self-cleavage turned out to be 0.221.

Turning to C25U G43U, the self-cleavage is 0.182.

In the case of A2U C9U, the self-cleavage came to 0.133.

Regarding G7U C46U, the self-cleavage stood at 0.103.

For A11C U18G, the self-cleavage is 0.0822.

For G16U C27G, the self-cleavage came out at 0.941.

With A11U C27A, the self-cleavage worked out at 0.66.

On to G28C A34G, for which the self-cleavage amounted to 0.491.

In the case of C25U G38U, the self-cleavage was 0.614.

With C25U G38C, the self-cleavage stood at 0.847.

Take A22U G38A: the self-cleavage stood at 0.843.

Regarding C9A A11G, the self-cleavage was determined as 0.735.

As for A33C G39A, the self-cleavage stood at 0.438.

For the variant G38C G43C, the self-cleavage was 0.137.

For the variant G16U A33G, the self-cleavage came out at 0.597.

Regarding A32G A35C, the self-cleavage came to 0.914.

As to G16C G29C, the self-cleavage is 0.117.

Take A30G U31A: the self-cleavage was determined as 0.744.

Turning to A30G U37C, the self-cleavage worked out at 0.486.

On to C14A C46G, for which the self-cleavage is 0.87.

Take A11U G28U: the self-cleavage was found to be 0.968.

As to C26U, the self-cleavage was 0.601.

Consider C8A A23U, for which the self-cleavage amounted to 0.0553.

Take U37A G39A: the self-cleavage turned out to be 0.173.

Consider C15A G45U, for which the self-cleavage amounted to 0.528.

On to A11G C20A, for which the self-cleavage came out at 0.117.

C25G G42C: the self-cleavage is 0.18.

For A1C C27G, the self-cleavage was determined as 0.121.

In the case of C5U G44A, the self-cleavage came to 0.748.

On to A1U G48A, for which the self-cleavage was 0.0713.

As for A1U G48C, the self-cleavage is 0.0772.

In the case of U18C A32G, the self-cleavage was determined as 0.664.

For U18C A32C, the self-cleavage came out at 0.486.

Regarding A33G A40C, the self-cleavage stood at 0.17.

As to A34U G43U, the self-cleavage turned out to be 0.193.

For the variant G7U C20G, the self-cleavage is 0.0693.

For A30U G47A, the self-cleavage stood at 0.927.

On to C3A U6G, for which the self-cleavage was 0.121.

C9G C46A: the self-cleavage was found to be 0.376.

For the variant C25U A40U, the self-cleavage amounted to 0.0985.

For the variant G16A C19U, the self-cleavage amounted to 0.826.

Take C21U U31C: the self-cleavage was found to be 0.103.

With C8U A11C, the self-cleavage was 0.89.

Consider G16U G38C, for which the self-cleavage came out at 1.02.

As for C26G G36A, the self-cleavage was determined as 0.0913.

In the case of A22G G47A, the self-cleavage was 0.184.

For the variant A22G G47C, the self-cleavage came to 0.128.

Regarding C3U A40U, the self-cleavage worked out at 0.0995.

Turning to C5G G38C, the self-cleavage is 0.219.

Turning to C20U U31G, the self-cleavage was 0.873.

With C20U U31C, the self-cleavage is 1.03.

G17A G41U: the self-cleavage came to 0.169.

Take A4C A30U: the self-cleavage was 0.189.

Consider A4G G44C, for which the self-cleavage came to 0.645.

As for G17A C26U, the self-cleavage is 0.923.

As to U6A C25U, the self-cleavage turned out to be 0.718.

As to A4C G39A, the self-cleavage was 0.101.

Regarding C8A G42A, the self-cleavage amounted to 0.141.

In the case of G16U C26G, the self-cleavage came out at 0.136.

Consider C25A G43U, for which the self-cleavage turned out to be 0.0941.

As to A40G G44C, the self-cleavage was found to be 0.195.

As to C3G C14G, the self-cleavage was 0.0805.

Consider C15A U37G, for which the self-cleavage was determined as 0.0756.

C15A G29U: the self-cleavage turned out to be 0.607.

Take U37A G38A: the self-cleavage was 0.821.

On to G36U U37G, for which the self-cleavage worked out at 0.37.

For G16C G36A, the self-cleavage came out at 0.188.

In the case of A30C U37G, the self-cleavage was 0.306.

With G17C A22U, the self-cleavage stood at 0.0369.

Consider C8A C14G, for which the self-cleavage came to 0.0608.

For C8A G36U, the self-cleavage was determined as 0.108.

As for C14G, the self-cleavage came to 0.171.

On to A10C C26G, for which the self-cleavage came to 0.175.

For A10C A34G, the self-cleavage came out at 0.88.

In the case of A4C G28A, the self-cleavage is 0.12.

C3G A10G: the self-cleavage was 0.872.

Regarding A10U A22G, the self-cleavage amounted to 0.291.

Take G13A G48U: the self-cleavage amounted to 0.705.

For the variant G7U C8A, the self-cleavage turned out to be 0.0463.

Regarding A2C C46U, the self-cleavage worked out at 0.0993.

With U6G C19A, the self-cleavage stood at 0.0816.

For G28A G41A, the self-cleavage worked out at 0.385.

G7A C8A: the self-cleavage turned out to be 0.0866.

Consider C3G G36C, for which the self-cleavage is 0.0943.

For the variant C5U G48A, the self-cleavage amounted to 0.639.

With U12C C25A, the self-cleavage came to 0.122.

Take C9U G17C: the self-cleavage came to 0.0426.

On to G28A G47U, for which the self-cleavage was 0.576.

Turning to G7A A30C, the self-cleavage amounted to 0.108.

Turning to C8U A22U, the self-cleavage was found to be 0.419.

For the variant C26U G41U, the self-cleavage is 0.145.

As to U12A U37A, the self-cleavage amounted to 0.918.

As for U18C A23C, the self-cleavage stood at 0.506.

U6A A35G: the self-cleavage is 0.807.

For the variant C46G G47C, the self-cleavage was found to be 0.981.

G17C G45C: the self-cleavage was 0.0995.

A4U A35U: the self-cleavage is 0.196.

In the case of C27G G42A, the self-cleavage was determined as 0.0529.

As for A2U U18G, the self-cleavage turned out to be 0.0917.

With U18G G36C, the self-cleavage came out at 0.0571.

For the variant G17A C27A, the self-cleavage amounted to 0.221.

With A22G G39U, the self-cleavage was 0.109.

As to C9U A32C, the self-cleavage is 0.64.

Consider C21U G28C, for which the self-cleavage is 0.0826.

On to A35G G41U, for which the self-cleavage was found to be 0.283.

With C9U G38U, the self-cleavage came out at 0.395.

In the case of C14G C19G, the self-cleavage was found to be 0.078.

Regarding A4G G43U, the self-cleavage is 0.233.

For C5A A40C, the self-cleavage worked out at 0.129.

Consider G41U G48A, for which the self-cleavage is 0.401.

As to C27A G28A, the self-cleavage stood at 0.423.

On to C3U A35C, for which the self-cleavage is 0.493.

Regarding A1U A4G, the self-cleavage came out at 0.0751.

Take G24A G43U: the self-cleavage was determined as 0.0769.

As for A11U G24U, the self-cleavage worked out at 0.105.

Turning to C3U C5G, the self-cleavage is 0.105.

A1C C15G: the self-cleavage is 0.187.

Consider C5U C14G, for which the self-cleavage stood at 0.0879.

Regarding C26U G38A, the self-cleavage was determined as 0.157.

On to C15A C46U, for which the self-cleavage was found to be 0.623.

The record behind these values is the RNAGym collection of RNA variant scans (doi:10.7554/elife.80360).
